Earlier results on one substance are cited in patent US11340238B2 (Biocon Limited, priority 2015, dated 2022).

For this series the following is noted: Type 1 Diabetes Mellitus patients on RHI therapy.

Consider recombinant Human insulin [RHI], for which the Cmax is listed as ~100 mU/L.
